Patent US20030054004A1 (published 2003)

What was measured:
[1] = target: human lymphotoxin (TNFβ) (human) (UniProt P01374); experiment: cell-based or functional assay
recombinant human TNFα = recombinant human TNFα (human, UniProt P01375 77-233); experiment: cell-based or functional assay
recombinant human TNFα, sequence (P01375 77-233): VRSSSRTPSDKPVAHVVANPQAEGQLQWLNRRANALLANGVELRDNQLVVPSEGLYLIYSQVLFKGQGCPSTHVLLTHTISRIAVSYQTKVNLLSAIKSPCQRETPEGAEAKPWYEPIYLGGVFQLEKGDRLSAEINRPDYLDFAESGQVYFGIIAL

human lymphotoxin (TNFβ) (human), sequence (P01374 35-205 limits assumed): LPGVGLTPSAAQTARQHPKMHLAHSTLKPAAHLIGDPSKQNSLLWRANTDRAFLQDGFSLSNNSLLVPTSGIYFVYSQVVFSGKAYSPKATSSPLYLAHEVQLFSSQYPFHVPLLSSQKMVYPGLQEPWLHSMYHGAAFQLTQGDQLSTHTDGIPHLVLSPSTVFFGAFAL

Molecule: p75P-sf2 (p75 extracellular domain lacking the C-terminal 53 amino acids, fused to the IgG1 heavy chain) (from UniProt P20333 23-204) (Fc fusion)
- concentration to half-inhibit human TNFβ at 2 pM, WEHI 164 cytotoxicity [1]: 31 pM

B1: chimeric mouse/human IgG1 anti-platelet mAb (7E3) (antibody, INN chains, looked up, V domains shown)
VH: EVQLQQSGTVLARPGASVKMSCEASGYTFTNYWMHWVKQRPGQGLEWIGAIYPGNSDTSYIQKFKGKAKLTAVTSTTSVYMELSSLTNEDSAVYYCTLYDGYYVFAYWGQGTLVTVSA
VL: EIVLTQSPVTLSVTPGDSVSLSCRASRDISNNLHWFQQTSHESPRLLIKYASQSMSGIPSRFSGSGSGTDFTLSINSVETEDFGMYFCQQTNSWPYTFGGGTKLEIK
modifications: IgG1
- IL-6 in supernatant of FS-4 fibroblasts; TNF 0.3 ng/ml, 4 µg/ml antibody (recombinant human TNFα): 1.6 ng/mL
- IL-6 in supernatant of FS-4 fibroblasts; TNF 1.5 ng/ml, 4 µg/ml antibody (recombinant human TNFα): 1.96 ng/mL
- IL-6 in supernatant of FS-4 fibroblasts; TNF 7.5 ng/ml, 4 µg/ml antibody (recombinant human TNFα): 2.16 ng/mL

B2: p75P-sf3 (as p75P-sf2 but lacking the CH1 domain) (Fc fusion, human, not shown: a dimerising Fc or GST)
heavy: QLPAQVAFTPYAPEPGSTCRLREYYDQTAQMCCSKCSPGQHAKVFCTKTSDTVCDSCEDSTYTQLWNWVPECLSCGSRCSSDQVETQACTREQNRICTCRPGWYCALSKQEGCRLCAPLRKCRPGFGVARPGTETSDVVCKPCAPGTFSNTTSSTDICRPHQICNVVAIPGNASMDAVCTSTSGTLVTVSS
- IC50: concentration of fusion protein required to inhibit 2 ng/ml (39.2 pM) TNFα by 50%, WEHI 164 cytotoxicity (recombinant human TNFα): 130 pM

B3: p55-sf3 (p55 / IgG1 heavy chain fusion lacking the CH1 domain) (Fc fusion, human, not shown: a dimerising Fc or GST)
heavy: QVCPQGKYIHPQNNSICCTKCHKGTYLYNDCPGPGQDTDCRECESGSFTASENHLRHCLSCSKCRKEMGQVEISSCTVDRDTVCGCRKNQYRHYWSENLFQCFNCSLCLNGTVHLSCQEKQNTVCTCHAGFFLRENECVSCSNCKKSLECTKLCLPQIGTLVTVSS
- IC50: concentration of fusion protein required to inhibit 2 ng/ml (39.2 pM) TNFα by 50%, WEHI 164 cytotoxicity (recombinant human TNFα): 100 pM
